Results published in article PMC7749421, “Functional expression of human prostaglandin E2 receptor 4 (EP4) in E. coli and characterization of the binding property of EP4 with Gα proteins” (Biochemistry and Biophysics Reports, 2020).

Assays:
[1] = biological target: Gαi1 (alpha subunit of Gi protein) (UniProt P63096); experiment: ELISA; Gα (10 μg/ml) immobilised in a high-binding 96-well plate, blocked with 5% skimmed milk; 5-1000 nM P9-EP4 in sarkosyl or in APG added; detected with anti-P9 antibody, HRP anti-mouse IgG and TMB; 25 °C
[2] = biological target: Gαi2 (alpha subunit of Gi protein) (UniProt P04899); experiment: as above
[3] = biological target: Gαi3 (alpha subunit of Gi protein) (UniProt P08754); experiment: as above
[4] = biological target: Gαs1 (alpha subunit of Gs protein) (UniProt P63092); experiment: as above
[5] = biological target: T1, human prostaglandin E2 receptor 4 (EP4) (Homo sapiens, UniProt P35408); experiment: biochemical
T1 construct: gene PTGER4
T1 sequence (P35408 1-354): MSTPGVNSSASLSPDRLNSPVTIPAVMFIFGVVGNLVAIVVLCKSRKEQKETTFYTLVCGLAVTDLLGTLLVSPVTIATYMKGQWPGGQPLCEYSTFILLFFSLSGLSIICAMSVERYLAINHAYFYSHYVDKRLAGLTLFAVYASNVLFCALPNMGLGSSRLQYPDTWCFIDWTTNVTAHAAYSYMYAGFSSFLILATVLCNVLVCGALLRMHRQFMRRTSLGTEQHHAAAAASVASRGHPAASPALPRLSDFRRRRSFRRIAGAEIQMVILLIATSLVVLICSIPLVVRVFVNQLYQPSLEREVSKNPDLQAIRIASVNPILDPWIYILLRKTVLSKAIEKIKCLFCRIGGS

Chain of P9-EP4 (human prostaglandin E2 receptor 4, amino acids 1-354, fused to the C-terminus of the P9 envelope protein of phage phi6, with a C-terminal His6 tag) (P35408 1-354 limits assumed): as the sequence (P35408 1-354) above
Chain of Gαi1 (alpha subunit of Gi protein) (P63096 whole entry): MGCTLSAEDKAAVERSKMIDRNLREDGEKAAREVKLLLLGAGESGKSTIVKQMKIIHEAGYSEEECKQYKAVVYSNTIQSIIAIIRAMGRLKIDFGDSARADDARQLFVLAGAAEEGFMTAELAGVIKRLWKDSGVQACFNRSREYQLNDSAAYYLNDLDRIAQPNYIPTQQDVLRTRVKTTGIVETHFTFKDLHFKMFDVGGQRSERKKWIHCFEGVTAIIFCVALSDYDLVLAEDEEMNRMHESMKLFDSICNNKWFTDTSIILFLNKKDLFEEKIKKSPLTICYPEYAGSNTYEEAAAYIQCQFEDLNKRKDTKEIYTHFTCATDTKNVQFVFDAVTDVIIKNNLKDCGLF
Chain of Gαi3 (alpha subunit of Gi protein) (P08754 whole entry): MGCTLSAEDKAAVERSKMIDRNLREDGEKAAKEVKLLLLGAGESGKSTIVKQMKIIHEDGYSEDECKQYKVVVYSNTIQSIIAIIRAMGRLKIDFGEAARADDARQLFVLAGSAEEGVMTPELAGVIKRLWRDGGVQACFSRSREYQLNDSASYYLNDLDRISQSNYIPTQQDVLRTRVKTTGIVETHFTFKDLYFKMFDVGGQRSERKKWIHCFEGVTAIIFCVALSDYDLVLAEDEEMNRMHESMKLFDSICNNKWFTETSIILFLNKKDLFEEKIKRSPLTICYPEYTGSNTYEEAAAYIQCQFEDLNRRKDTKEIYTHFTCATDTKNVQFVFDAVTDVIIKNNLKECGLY
Chain of Gαi2 (alpha subunit of Gi protein) (P04899 whole entry): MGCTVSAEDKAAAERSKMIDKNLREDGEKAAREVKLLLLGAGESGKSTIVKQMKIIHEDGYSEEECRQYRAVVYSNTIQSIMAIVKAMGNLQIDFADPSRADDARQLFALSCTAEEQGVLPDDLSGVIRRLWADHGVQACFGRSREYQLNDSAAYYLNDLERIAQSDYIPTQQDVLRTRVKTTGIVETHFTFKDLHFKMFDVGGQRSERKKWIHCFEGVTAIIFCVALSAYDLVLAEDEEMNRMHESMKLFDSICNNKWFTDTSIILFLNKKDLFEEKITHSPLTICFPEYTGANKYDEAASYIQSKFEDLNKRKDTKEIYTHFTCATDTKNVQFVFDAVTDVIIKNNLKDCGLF
Chain of Gαs1 (alpha subunit of Gs protein) (P63092 whole entry): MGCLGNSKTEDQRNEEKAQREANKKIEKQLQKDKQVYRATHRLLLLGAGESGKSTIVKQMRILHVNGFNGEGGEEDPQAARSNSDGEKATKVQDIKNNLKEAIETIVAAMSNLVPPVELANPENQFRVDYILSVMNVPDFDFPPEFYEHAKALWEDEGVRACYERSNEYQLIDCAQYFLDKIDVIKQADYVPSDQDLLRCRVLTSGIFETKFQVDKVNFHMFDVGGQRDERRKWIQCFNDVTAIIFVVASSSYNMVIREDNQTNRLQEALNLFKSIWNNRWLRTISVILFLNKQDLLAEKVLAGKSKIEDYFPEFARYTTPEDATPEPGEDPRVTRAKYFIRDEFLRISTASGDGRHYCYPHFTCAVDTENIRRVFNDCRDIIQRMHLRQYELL

| Molecule | Kd [1] [µM] | Kd [2] [µM] | Kd [3] [µM] | Kd [4] [µM] | Kd [5] [µM] |
| --- | --- | --- | --- | --- | --- |
| P9-EP4 (human prostaglandin E2 receptor 4, amino acids 1-354, fused to the C-terminus of the P9 envelope protein of phage phi6, with a C-terminal His6 tag) (from UniProt P35408 1-354) | 0.05 | 0.175 | 0.214 | 0.088 |  |
| CC(C(=O)Nc1cc(C#N)ccc1CCCC(=O)O)c1ccc(F)c2ccccc12 (centres unmarked) [ONO-AE3-208] |  |  |  |  | 0.68 ± 0.15 |
